Laboratory results taken from patent US20150307599A1 (GARVAN INSTITUTE OF MEDICAL RESEARCH, published 2015).
Where no end group is shown, it is not given here.

How the values were obtained:
Peptide 3p6 (ala-NPFF) = target: T1, Peptide 3p6 (ala-NPFF); test: SPR (Biacore), FIG. 12
T1 construct: Last 8 residues of NPFF on a poly-alanine helix
T1 peptide: AAAAAAAAAFLFQPQRF-NH2
Protocol: (§1) Epitope mapping and determination of the affinity of MAb 5E12-B7 was also performed using a Biacore 2000 unit (GE Healthcare). Briefly, purified MAb 5E12-B7 was biotinylated as described above, except that the biotinylation reaction was performed at a 20:1 molar ratio of biotin:Ig. An SA-Chip (GE Healthcare) was docked into the Biacore 2000 unit and HBS-EP buffer (GE) was allowed to run over all 4 flow channels at 40 μL/min until signal had stabilized. The flow path was then switched to channel 4 only and HBS-EP containing 60 μg/mL biotinylated antibody was injected at 40 μL/min for 5 min to couple MAb 5E12-B7 to the chip via biotin-streptavidin binding. HBS-EP buffer was then run over channel 4 at 40 μL/min for over 30 min to remove all uncoupled Ig from the Biacore system then the flow path was changed to pass through all 4 flow channels. Association and dissociation of the peptides in Table 3 was measured using the Biacore Application Wizard. In each case, a baseline was established by passing HBS-EP over all 4 channels at 40 μL/min for 1 min before association was measure by injection of peptide (diluted to 1, 10, 100 or 1000 nM in HBS-EP) at 40 μL/min for 5 min. Dissociation was measured by allowing HBS-EP to pass over all 4 channels at 40 μL/min for 30 min. The kd, kₐ and KD were determined for each peptide by curve fitting using the BIAevalutation software.

[1] = target: T2, Peptide 3p7 (Brain Neuropeptide I); test: SPR (Biacore), FIG. 12
T2 peptide: AGEGLSSPFWSLAAPQRF-NH2
Protocol: as §1

[2] = target: T3, Peptide 3p8 (Poly alanine with last 4 residues NPFF); test: SPR (Biacore), FIG. 12
T3 peptide: AAAAAAAAAAAAAPQRF-NH2
Protocol: as §1

[3] = target: T4, Peptide 3p17 (NPY C terminus with similar a.a. substitutions); test: SPR (Biacore), FIGS. 11A and 11B
T4 construct: Poly-alanine 17-mer ending QRH-amide
T4 peptide: AAAAAAAAAAAAAAQRH-NH2
Protocol: as §1

[4] = target: T5, Peptide 3p18 (NPY C terminus with similar a.a. substitutions); test: SPR (Biacore), FIGS. 11A and 11B
T5 construct: Poly-alanine 17-mer ending QRF-amide
T5 peptide: AAAAAAAAAAAAAAQRF-NH2
Protocol: as §1

[5] = target: T6, Peptide 3p19 (NPY C terminus with similar a.a. substitutions); test: SPR (Biacore), FIGS. 11A and 11B
T6 construct: Poly-alanine 17-mer ending QRW-amide
T6 peptide: AAAAAAAAAAAAAAQRW-NH2
Protocol: as §1

[6] = target: T7, Peptide 1p16 (NPY last 17 residues Alanine Scan) (C-terminal amide (-NH2)); test: indirect ELISA, peptide coated at 20 ug/mL, MAb at 1 ug/mL
T7 construct: NPY 25-mer with alanine at NPY residue 34
Protocol: (§2) ELISA was used to map the reactivity of purified MAb 5E12-B7 against the peptides described in Table 3. Briefly, ELISA microwell plates (96-well Maxisorp, Nunc) were coated overnight at 4° C. with 50 μL of mapping peptides (Table 3) diluted to 20 μg/mL in carbonate coating buffer (CCB). Between each of the following steps, microwell plates were washed three times with PBST using a plate washer (BioTek). Coated wells were blocked with 200 μL PBS containing 5% w/v skim milk (Diploma). Blocked wells were incubated for 1 hr with 50 μL of MAb 5E12-B7 diluted to 1 μg/mL in skim milk/PBST. Wells were then incubated for 1 hr with 50 μL Peroxidase-conjugated AffiniPure F(ab)2 fragment goat anti-mouse secondary antibody (Jackson) diluted 1:5000 in skim milk/PBST. Ig binding was detected by incubation of wells with 50 μL TMB substrate (Becton Dickinson). Substrate reaction was stopped after 15 min with 50 μL 1M H₂SO₄ and O.D. 450 nm was measured.

[7] = target: T8, Peptide 1p17 (NPY last 17 residues Alanine Scan) (C-terminal amide (-NH2)); test: as above
T8 construct: NPY 25-mer with alanine at NPY residue 35
Protocol: as §2

[8] = target: T9, Peptide 1p18 (NPY last 17 residues Alanine Scan) (C-terminal amide (-NH2)); test: as above
T9 construct: NPY 25-mer with alanine at NPY residue 36
Protocol: as §2

[9] = target: T10, Peptide 2p15 (Poly Ala with shrinking NPY C term); test: as above
T10 construct: 15 alanines followed by RY-amide
T10 peptide: AAAAAAAAAAAAAAARY-NH2
Protocol: as §2

[10] = target: T11, Peptide 2p16 (Poly Ala with shrinking NPY C term); test: as above
T11 construct: 16 alanines followed by Y-amide
T11 peptide: AAAAAAAAAAAAAAAAY-NH2
Protocol: as §2

[11] = target: T12, Peptide 2p17 (HBY with polyAlanine C terminus) (C-terminal amide (-NH2)); test: as above
T12 construct: HBY with four alanine residues added to the C-terminus
T12 peptide: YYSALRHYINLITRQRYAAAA
Protocol: as §2

1p28-ALRHYINLIT = target: T13, 1p28-ALRHYINLIT; test: indirect ELISA, peptide coated on the plate (20 µg/mL), MAb 5E12-B7 at 1 µg/mL, O.D. 450 nm
T13 construct: NPY residues 23-32; also called Peptide 1p28 (10 mer shifting across NPY)
T13 peptide: ALRHYINLIT-NH2
Protocol: as §2

1p20-EDMARYYSAL = target: T14, 1p20-EDMARYYSAL; test: as above
T14 construct: NPY residues 15-24; also called Peptide 1p20 (10 mer shifting across NPY)
T14 peptide: EDMARYYSAL-NH2
Protocol: as §2

1p24-RYYSALRHYI = target: T15, 1p24-RYYSALRHYI; test: as above
T15 construct: NPY residues 19-28; also called Peptide 1p24 (10 mer shifting across NPY)
T15 peptide: RYYSALRHYI-NH2
Protocol: as §2

1p26-YSALRHYINL = target: T16, 1p26-YSALRHYINL; test: as above
T16 construct: NPY residues 21-30; also called Peptide 1p26 (10 mer shifting across NPY)
T16 peptide: YSALRHYINL-NH2
Protocol: as §2

binding result (Peptide 3p6 (ala-NPFF)): no binding | binding result [1]: no binding | binding result [2]: no binding | binding result [3]: no binding | binding result [4]: no binding | binding result [5]: no binding | binding result [6]: no binding | binding result [7]: no binding | binding result [8]: no binding | binding result [9]: no binding | binding result [10]: no binding | binding result [11]: no binding | binding result (1p28-ALRHYINLIT): no binding (tested: 1 µg/mL) | binding result (1p20-EDMARYYSAL): no binding (tested: 1 µg/mL) | binding result (1p24-RYYSALRHYI): no binding (tested: 1 µg/mL) | binding result (1p26-YSALRHYINL): no binding (tested: 1 µg/mL)
B1: MAb 5E12-B7 (antibody, V domains shown)
VH: QVQLQHPGTEVVKPGASVKLSCKASGYTFTNYWMHWVKQRPGQGLEWIGNIDPSNGGTNYNEKFKSKATLTVDKSSSTAYMQLSSLTSEDSAVYYCASFAYWGQGTLVTVSA
VL: DIQMTQSPASLSASVGETVTITCRASGNIHNYLAWYQQKQGKSPQLLVYNAKTLADGVPSRFSGSGSGTQYSLKISSLRPEDFGSYYCQHFWSPPFTFGSGTKLEIK
notes: Biotinylated for the Biacore and Octet assays; also called PYY/NPY antibody (5E12); anti-NPY/PYY antibody 5E12
